From the nanobody polyreactivity screen of Harvey et al. (2022)

Assay: yeast display, Sf9 membrane polyspecificity reagent, FACS + sequencing; frameworks hold sequencing errors
Outline: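 In a synthetic yeast display library (Saccharomyces cerevisiae BJ5465), nanobody expression was induced with galactose for 36–48 hours. FACS gates were set low and high (top ~1%) using anti-HA fluorescence for expression and streptavidin fluorescence for binding of the Sf9 membrane reagent. Each polyreactivity label is drawn from the gate of origin.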

Sequence | polyreactivity (PSR sort gate)
QVQLVESGGGLVQAGGSLRLSCAASGIIFWHYAMGMYRQAPGKERELVADISRRGGSTYYADSVKGRFTISRDNAKNTVYLQINSLKPEDNAVYYCAARYHPGGYDSWGQGTQVTVSS | low polyreactivity
QVQLVESGGGLVQAGGSLRLSCAASGRTFVFYAMGWYRQAPGKESEFVARITWSGGRTFYADSVKGRFTISRDNAKNTVYLQMNSLKPEDTAVYYCAARGHDAVIATRYDYWGQGTQVTVSS | high polyreactivity
QLQLVESVRGLVQAGGSLRLSCAASGGIFDTYAKGWYRQAPCKERELVASISRSGSTNYADSVKGRFTISRDNAKNTVYLQMNSLKPEDSAVYYCAADVFYSIYDYWGQGTQVTVSS | low polyreactivity
QVQLVESGGGLVQAGGSLRLSCAASGSTYHQYTMGWYRQAPRKERELVSTINNGGITNYADSLKGRFTISRDNAKKTVYLQLISQNPEDTAVYYCAADYSYYGRYGRYDYWGQGTQVTVSS | low polyreactivity
QVQHVESGGGLVQAGGSLRLSCSASGITLPGSAIGWYRQAAGKVREFVAAISTSGGSTYYADSVKGRFTISRDYAKNTVYLQMNSLKPEDTAVYYCNARLVYYSYEEMDYWGQGTQVTVSS | low polyreactivity
QVQLEESGGGLVQAGGSLRLSSAASGRIFGGYAMGWYRQAPGKEREMVAAITQSGGSTYYADSVKGRFTISRDNAKNTVYLQMNSLTAEDTAVYYCNARLARGYWTPGKERPMEYWGQGTQVTVSS | low polyreactivity
QVQLVESGGGLVQAGGSLRLSCAASGYTFGSSTMGWYRPAAGTERELVAAISNRGGPYYADAVKGRFTISRDNAKNTVYLQMNSLTPEDTAVYYCAVARRCGYDYWGQGTQVTVSS | high polyreactivity
QVQLVESWGGLVQAGGSLRLSCAASGRIFDPYAMGWYRQAPGKERELVATITLRGGITYYADSVKGRFTISRDNAKNTVYLEMNSLKPEDTAVYYCAKKVRYYVRWEYDYWGQGTQVTVSS | low polyreactivity
QVQLVESGGGLVQAGGSLRLSCAASGFTFRYYAMGWYRQAPGKEREFVAAITYNGVSTYYADSVKGRFTISRDNAKNTVYLQMNSLKPEDTAVYYCAAGWYYYARPRVYNAREYYYWGQGTQVTVSS | high polyreactivity
QVQLVESGGGLVQAGGSLRLSCAASGSIFGAYAMGWYRQAPGKERELVAAISGSGTSTYYADSVKGRFTISRDNAKNTVYLQMYSLKPEDTAVYYCAADGTYFYIYLGDRFDYWGQGTQVTVSS | low polyreactivity
QVQLVESGGGLVQAGGSLRLSCAASGFTFTRYTMGWYRQAPGKERELVAHITSGDSTNYADSVKGRFTISRDNAKNTVYLQKNSLKPEDTAVYYCNAEVKGFFYDYDYWGQGTQVTVSS | low polyreactivity
QVQLVESGGGLVQAGGSLRLSCAASGIIFGQYAMGGYIQAPGKEREFVSAISRSGGSTNYADSVKGLFTISRDNAKNTVYLQMNSLKPEDTAVYYCNKRARHTGDFVWGHGYWGQGTQVTVSS | low polyreactivity
QVQLVESGGAIVQAGGSHRLRCAASGSILGRYAMAWYRQAPGKERELVAAISRRGGSTTYADSVKGRFTISRDNAKNTVYFQMNSLKPEDTALYYCNTVSSWGRNYQDEYDYWGQGTQVSVSS | high polyreactivity
QVQLLESGGGLVQAGGSLRLSCAASGFNFYRYAMGWYRQAPGKERELVAAIRKSGGSTYYADSVKGRFTISRDNAKNTVYCQMNSLKPEDTAVSYCAKRYATDGFGYWGQGTQVSVSS | high polyreactivity
QVQLVESGGGLVQAGGSLRLSCAASGSIFYVYAMGWYRQAPGKERELVADITTRDGDTYYADSVKGRFTISRDNAKNTVYLQMNSLKPEDTAVYYCAADLNAYPQRAYDYWGQGTQVTVSS | low polyreactivity
QVQLVESGGGLVQAGGSLRLSCAASGIIFHPYAMGWYRQAPGKERELVAVITWPGDSTYYADSVKGRFRISRDNAKNTVYLQMNSLKPEDTAVYYCNVDAWGTSGELPYDYWGQGTQVTVSS | low polyreactivity
QVQLVESGGGLVQAGGSLRLSCAASGSISVVNMGWYRQAPGKERELVASITSSGSTTYADSVKGRFTISRDNAKNTVYLQMNSLKPEDTAGYYCAASSTGYGGSTYYYWGQGTQVTVSS | low polyreactivity
